# Measurements as given in paper PMC4366370, “Overexpression of a Novel Thermostable and Chloride-Tolerant Laccase from Thermus thermophilus SG0.5JP17-16 in Pichia pastoris and Its Application in Synthetic Dye Decolorization” (PLoS ONE, 2015).
# What was measured:
# COc1ccccc1O = assay: purified protein; conditions: optimal pH 7.5, 90°C
# [1] = tested on: COc1cc(C=NN=Cc2cc(OC)c(O)c(OC)c2)cc(OC)c1O; assay: purified protein; conditions: optimal pH 6.0, 90°C
substance,measurement,setting,value
LacTT (Thermus thermophilus SG0.5JP17-16),Km,COc1ccccc1O,363.3 ± 29.1 µM
same,kcat,COc1ccccc1O,4.34 ± 0.216 s⁻¹
same,kcat/Km,COc1ccccc1O,12000 ± 1000 M⁻¹ s⁻¹
same,Km,[1],27.0 ± 1.5 µM
same,kcat,[1],1 ± 0.061 s⁻¹
same,kcat/Km,[1],37000 ± 2700 M⁻¹ s⁻¹
